Assay results from publication PMC7904477 (Journal of the American Chemical Society, 2020).

Molecular target: T1, wt α2 (subunit α2 of E. coli class Ia ribonucleotide reductase) (E. coli, UniProt P00452 1-761)
T1 sequence (looked up): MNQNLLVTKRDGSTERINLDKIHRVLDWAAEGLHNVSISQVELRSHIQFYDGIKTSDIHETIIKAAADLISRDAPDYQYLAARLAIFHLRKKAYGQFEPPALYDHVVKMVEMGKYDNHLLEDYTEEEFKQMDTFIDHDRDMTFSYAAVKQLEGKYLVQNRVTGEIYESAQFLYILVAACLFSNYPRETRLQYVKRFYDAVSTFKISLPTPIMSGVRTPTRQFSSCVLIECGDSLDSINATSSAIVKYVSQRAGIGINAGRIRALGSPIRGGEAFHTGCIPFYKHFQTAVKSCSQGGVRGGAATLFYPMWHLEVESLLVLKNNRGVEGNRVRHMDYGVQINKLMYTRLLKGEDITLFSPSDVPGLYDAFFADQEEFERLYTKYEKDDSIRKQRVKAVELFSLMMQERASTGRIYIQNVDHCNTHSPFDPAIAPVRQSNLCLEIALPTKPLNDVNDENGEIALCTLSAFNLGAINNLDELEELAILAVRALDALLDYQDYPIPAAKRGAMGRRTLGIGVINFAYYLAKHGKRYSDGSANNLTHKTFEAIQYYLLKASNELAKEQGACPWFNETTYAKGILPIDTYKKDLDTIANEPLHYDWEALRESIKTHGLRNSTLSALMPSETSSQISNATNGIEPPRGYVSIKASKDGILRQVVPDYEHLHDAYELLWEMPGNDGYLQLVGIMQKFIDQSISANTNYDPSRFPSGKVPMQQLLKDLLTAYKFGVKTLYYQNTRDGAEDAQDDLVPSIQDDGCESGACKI
Assay: competitive inhibition assay

B1: wt β2 (subunit β2 of E. coli class Ia ribonucleotide reductase) (enzyme, UniProt P69924 1-376, looked up)
chain: MAYTTFSQTKNDQLKEPMFFGQPVNVARYDQQKYDIFEKLIEKQLSFFWRPEEVDVSRDRIDYQALPEHEKHIFISNLKYQTLLDSIQGRSPNVALLPLISIPELETWVETWAFSETIHSRSYTHIIRNIVNDPSVVFDDIVTNEQIQKRAEGISSYYDELIEMTSYWHLLGEGTHTVNGKTVTVSLRELKKKLYLCLMSVNALEAIRFYVSFACSFAFAERELMEGNAKIIRLIARDEALHLTGTQHMLNLLRSGADDPEMAEIAEECKQECYDLFVQAAQQEKDWADYLFRDGSMIGLNKDILCQYVEYITNIRMQAVGLDLPFQTRSNPIPWINTWLVSDNVQVAPQEVEVSSYLVGQIDSEVDTDDLSNFQL
modifications: diferric-tyrosyl radical cofactor (Y122•), reconstitution yield of 1.1 Y•/β2
B1: binds.

B2: E52Q-photoβ2 (E52Q/C268S/C305S/S355C-β2 of E. coli class Ia ribonucleotide reductase, labelled with the [Re] photooxidant at C355) (enzyme, UniProt P69924 1-376, looked up)
chain: MAYTTFSQTKNDQLKEPMFFGQPVNVARYDQQKYDIFEKLIEKQLSFFWRPEQVDVSRDRIDYQALPEHEKHIFISNLKYQTLLDSIQGRSPNVALLPLISIPELETWVETWAFSETIHSRSYTHIIRNIVNDPSVVFDDIVTNEQIQKRAEGISSYYDELIEMTSYWHLLGEGTHTVNGKTVTVSLRELKKKLYLCLMSVNALEAIRFYVSFACSFAFAERELMEGNAKIIRLIARDEALHLTGTQHMLNLLRSGADDPEMAEIAEESKQECYDLFVQAAQQEKDWADYLFRDGSMIGLNKDILSQYVEYITNIRMQAVGLDLPFQTRSNPIPWINTWLVSDNVQVAPQEVEVSCYLVGQIDSEVDTDDLSNFQL
modifications: [Re] photooxidant (tricarbonyl(1,10-phenanthroline)-4-thiomethylpyridine rhenium) covalently ligated to C355 (S355C); endogenous Y122• reduced
A Kd of 1060 nM was found for B2 in this work.
